Test results taken from US20110130328A1 (THE ADMINISTRATORS OF THE TULANE EDUCATIONAL FUND, published 2011).
No end group written: not given here.

Biological target: envelope glycoproteins E1 and E2 of the H77 strain of HCV, on HIV-core pseudotype virions (hepatitis C virus strain H77, UniProt P27958)
Assay: cell-based or functional assay

Compared with GSATLCSALYVGDLCGSV [peptide 64 (18 mer of E1 of HCV strain H77)], AALVVAQLLRIPQAIMDM [peptide 73 (18 mer of E1 of HCV strain H77)] is higher in “Percent Inhibition of infection by the H77-E1E2 pseudotype (luciferase), peptide at about 25 µM” value (“Percent Inhibition of infection … at about 25 µM” below): 0.55% for the first, 11.5% for the second.

Going from DAILHTPGCVPCVREGNA [peptide 57 (18 mer of E1 of HCV strain H77)] to CGSVFLVGQLFTFSPRHH [peptide 66 (18 mer of E1 of HCV strain H77)], the “Percent Inhibition of infection … at about 25 µM” value rises from -49.4% to 79.5%.

First: AHWGVLAGIKYFSMVGNW [peptide 76 (18 mer of E1 of HCV strain H77)]
Second: SSGLYHVTNDCPNSSIVY [peptide 54 (18 mer of E1 of HCV strain H77)]
The “Percent Inhibition of infection … at about 25 µM” value of the first is lower: 15.3% for the first, 99.9% for the second.

First: GQLFTFSPRHHWTTQDCN [peptide 67 (18 mer of E1 of HCV strain H77)]
Second: TNDCPNSSVVYEAADAIL [peptide 55 (18 mer of E1 of HCV strain H77)]
The “Percent Inhibition of infection … at about 25 µM” value of the first is higher: 43.2% for the first, 1.12% for the second.

Going from LVVLLLFAGVDAETHVTG [peptide 79 (18 mer of E1 of HCV strain H77)] to GIKYFSMVGNWAKVLVVL [peptide 77 (18 mer of E1 of HCV strain H77)], the “Percent Inhibition of infection … at about 25 µM” value rises from 10.6% to 50.4%.

Compared with LPTTQLRRHIDLLVGSAT [peptide 62 (18 mer of E1 of HCV strain H77)], SIVYEAADAILHTPGCVP [peptide 56 (18 mer of E1 of HCV strain H77)] is higher in “Percent Inhibition of infection … at about 25 µM” value: -1.96% for the first, 42.3% for the second.

First: IMDMIAGAHWGVLAGIKY [peptide 75 (18 mer of E1 of HCV strain H77)]
Second: MMNWSPTAALVVAQLLRI [peptide 72 (18 mer of E1 of HCV strain H77)]
The “Percent Inhibition of infection … at about 25 µM” value of the first is lower: 0.32% for the first, 33.4% for the second.

First: SAYQVRNSSGLYHVTNDC [peptide 53 (18 mer of E1 of HCV strain H77)]
Second: VATRDGKLPTTQLRRHID [peptide 61 (18 mer of E1 of HCV strain H77)]
The “Percent Inhibition of infection … at about 25 µM” value of the first is higher: 0.23% for the first, -30.8% for the second.

Going from RHIDLLVGSATLCSALYV [peptide 63 (18 mer of E1 of HCV strain H77)] to SCLTVPASAYQVRNSSGL [peptide 52 (18 mer of E1 of HCV strain H77)], the “Percent Inhibition of infection … at about 25 µM” value falls from 49.1% to -17.2%.

Compared with GCVPCVREGNASRCWVAV [peptide 58 (18 mer of E1 of HCV strain H77)], LLRIPQAIMDMIAGAHWG [peptide 74 (18 mer of E1 of HCV strain H77)] is higher in “Percent Inhibition of infection … at about 25 µM” value: -4.42% for the first, 71.1% for the second.

With PRHHWTTQDCNCSIYPGH [peptide 68 (18 mer of E1 of HCV strain H77)] the “Percent Inhibition of infection … at about 25 µM” value was 31.3%.

Going from QDCNCSIYPGHITGHRMA (not fully specified; cysteine pairing not given here) [peptide 69 (18 mer of E1 of HCV strain H77)] to ALYVGDLCGSVFLVGQLF (not fully specified) [peptide 65 (18 mer of E1 of HCV strain H77)], the “Percent Inhibition of infection by the H77-E1E2 pseudotype (luciferase), peptide marked by asterisk: actual concentration 10 µM or less” value rises from -73.1% to 22.9%.

In the case of VGNWAKVLVVLLLFAGVD [peptide 78 (18 mer of E1 of HCV strain H77)], the “Percent Inhibition of infection by the H77-E1E2 pseudotype (luciferase), peptide marked by asterisk: actual concentration 10 µM or less” value is reported as -21.1%.
